The target of the assay is human α3β2 nicotinic acetylcholine receptor (human) (UniProt P32297).
Chain of UniProt P32297 (P32297 32-505, chain 1 of 2): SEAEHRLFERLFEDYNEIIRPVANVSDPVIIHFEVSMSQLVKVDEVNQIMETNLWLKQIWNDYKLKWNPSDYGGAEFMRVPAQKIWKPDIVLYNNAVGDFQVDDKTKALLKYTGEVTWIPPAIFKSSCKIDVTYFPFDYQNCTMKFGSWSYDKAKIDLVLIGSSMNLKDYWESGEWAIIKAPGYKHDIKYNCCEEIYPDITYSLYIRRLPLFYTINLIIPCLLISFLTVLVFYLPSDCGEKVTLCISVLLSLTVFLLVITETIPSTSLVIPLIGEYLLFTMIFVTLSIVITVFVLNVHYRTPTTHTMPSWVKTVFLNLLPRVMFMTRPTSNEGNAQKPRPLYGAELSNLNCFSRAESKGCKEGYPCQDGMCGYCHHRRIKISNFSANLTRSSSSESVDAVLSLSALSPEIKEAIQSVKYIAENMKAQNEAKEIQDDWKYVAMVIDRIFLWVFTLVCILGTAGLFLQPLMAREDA
Chain of UniProt P32297 (P17787 26-502, chain 2 of 2, further chain): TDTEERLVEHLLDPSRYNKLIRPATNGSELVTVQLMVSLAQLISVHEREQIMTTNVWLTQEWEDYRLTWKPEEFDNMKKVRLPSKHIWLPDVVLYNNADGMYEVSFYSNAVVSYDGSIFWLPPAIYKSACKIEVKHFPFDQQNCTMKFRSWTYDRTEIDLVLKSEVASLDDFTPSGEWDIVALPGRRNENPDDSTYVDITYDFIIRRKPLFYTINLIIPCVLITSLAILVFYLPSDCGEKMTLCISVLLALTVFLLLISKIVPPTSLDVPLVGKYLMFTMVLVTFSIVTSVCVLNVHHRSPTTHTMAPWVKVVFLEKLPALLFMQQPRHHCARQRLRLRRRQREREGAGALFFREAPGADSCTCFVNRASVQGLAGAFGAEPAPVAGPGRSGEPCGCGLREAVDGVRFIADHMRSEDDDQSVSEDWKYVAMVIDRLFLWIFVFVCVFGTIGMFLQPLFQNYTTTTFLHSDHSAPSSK

Turning to drysdalin (natural protein), the inhibition of ACh‐evoked peak current at 30 nmol/L drysdalin, Xenopus oocytes is 13%.

Source of the values: paper PMC6996315.
